Data as given in patent US20240190968A1.

Biological target: Cynomolgus monkey B7H6 protein overexpressed in CHO-K1 cells (Cynomolgus monkey)
Test: flow cytometry on CHO-K1-cyno B7H6 cells, Alexa-647 mouse anti-human IgG-Fc secondary antibody, binding ratio (%)

Sequence of Cynomolgus monkey B7H6 protein overexpressed in CHO-K1 cells (Cynomolgus monkey) (chain, as listed by the source limits assumed, form in doubt): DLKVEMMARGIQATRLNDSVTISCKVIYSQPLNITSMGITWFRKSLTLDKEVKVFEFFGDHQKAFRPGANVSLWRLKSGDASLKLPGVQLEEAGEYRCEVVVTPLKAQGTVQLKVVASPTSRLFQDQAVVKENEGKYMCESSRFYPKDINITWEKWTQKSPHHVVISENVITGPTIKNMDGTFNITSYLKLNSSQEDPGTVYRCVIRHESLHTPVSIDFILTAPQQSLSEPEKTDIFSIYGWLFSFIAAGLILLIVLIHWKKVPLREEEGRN

Row | EC50 (read off the curve) [µg/mL] | Binder
1 | 0.7 | humanized antibody h12G4 (antibody, human IgG1, kappa, V domains shown) VH: EVQLVQSGAEVKKPGASVKVSCKASGYTFTDYNMDWVRQAPGKGLEWIGDINPNNGGTLYNQKFRGRVTLTVDKSISTAYMELSRLRSDDTAVYYCARSEVFYGNYADYWGQGTTVTVSS VL: DIVLTQTPLSLSVTPGQPASISCKASQSVDYDGDSYMNWYLQKPGQPPQLLIYAASTLHSGVPDRFSGSGSGTDFTLKISRVEAEDVGVYYCQQSKEDPRTFGQGTKLEIKR
2 | 0.2 | humanized antibody h12F5 (antibody, human IgG1, kappa, V domains shown) VH: EVQLVQSGAEVKKPGASVKVSCKASGYTFTSYYMYWVRQAPGQGLEWIGEINPSNGGTNFNEKFKSRVTLTVDKSISTAYMELSRLRSDDTAVYYCTRTLYYGNDWYFDVWGQGTTVTVSS VL: EIVLTQSPDFQSVTPKEKVTITCSASSSVNYMHWYQQKPDQSPKRLIYDTSKLASGVPSRFSGSGSGTDYTLTINSLEAEDAATYYCQQWSSNPVTFGQGTKLEIKR
